Target: T1, Smc5(G1054C), Smc5 with the engineered cysteine of the Smc5–Nse4 interface (S. cerevisiae, UniProt Q08204 1-1093, G1054C)
T1 construct: Smc5, S. cerevisiae, subunit of the Smc5/6 hexamer; engineered cysteine G1054C for BMOE cross-linking to Nse4; Stood in the assay as a subunit of the purified hexamer (Smc5, Smc6, Nse1-4)
T1 sequence (looked up): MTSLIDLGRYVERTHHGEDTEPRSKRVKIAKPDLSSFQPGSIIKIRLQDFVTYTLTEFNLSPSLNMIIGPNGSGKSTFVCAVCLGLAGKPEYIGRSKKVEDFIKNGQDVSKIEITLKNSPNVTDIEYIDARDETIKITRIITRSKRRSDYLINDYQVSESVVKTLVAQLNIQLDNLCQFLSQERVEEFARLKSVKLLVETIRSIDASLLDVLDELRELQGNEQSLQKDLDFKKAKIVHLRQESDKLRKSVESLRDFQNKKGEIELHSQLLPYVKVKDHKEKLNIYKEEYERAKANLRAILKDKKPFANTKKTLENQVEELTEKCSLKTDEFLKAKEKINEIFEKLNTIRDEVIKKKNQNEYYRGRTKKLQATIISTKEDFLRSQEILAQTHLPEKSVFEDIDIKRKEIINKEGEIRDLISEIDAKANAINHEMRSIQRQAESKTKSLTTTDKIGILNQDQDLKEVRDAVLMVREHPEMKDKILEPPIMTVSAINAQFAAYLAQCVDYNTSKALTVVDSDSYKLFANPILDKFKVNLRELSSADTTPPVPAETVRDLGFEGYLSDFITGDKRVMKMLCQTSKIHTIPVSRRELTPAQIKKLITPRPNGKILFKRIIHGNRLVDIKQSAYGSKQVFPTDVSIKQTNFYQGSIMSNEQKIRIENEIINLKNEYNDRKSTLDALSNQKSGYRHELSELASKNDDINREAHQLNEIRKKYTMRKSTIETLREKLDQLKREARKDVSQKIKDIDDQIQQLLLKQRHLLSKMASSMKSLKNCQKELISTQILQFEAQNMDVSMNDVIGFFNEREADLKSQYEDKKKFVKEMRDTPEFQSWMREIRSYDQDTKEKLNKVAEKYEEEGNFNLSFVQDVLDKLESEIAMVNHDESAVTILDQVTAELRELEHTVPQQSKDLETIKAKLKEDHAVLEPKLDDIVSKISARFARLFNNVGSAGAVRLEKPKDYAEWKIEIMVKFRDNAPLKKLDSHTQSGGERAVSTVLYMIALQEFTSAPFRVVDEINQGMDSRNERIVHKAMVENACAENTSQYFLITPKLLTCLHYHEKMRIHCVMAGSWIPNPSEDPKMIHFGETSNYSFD
Assay: cross-linking; site-specific BMOE cross-linking (1 mM, 45 s, stopped with 10 mM DTT) of engineered cysteine pairs in purified Smc5/6 hexamers at 0.5 uM; 10 mM Hepes-KOH pH 7.5, 150 mM KOAc, 2 mM MgCl2, 20% glycerol, RT; with or without Nse5/6 dimer (0.625 uM), 2 mM ATP, 5 nM plasmid DNA (25 kbp); SDS-PAGE and Coomassie staining, bands quantified
Conditions: both partners purified

B1: Nse5/6 dimer (loader) (complex, S. cerevisiae)
chain 1: MDGALINSVLYVSPRNGAHYFVELTEKHLLAFEMLNSMCLLENYDHVLLFLECQFGKSHNLAVIPFDIILVLFTLSTLSEYYKEPILRANDPYNTSRETLSRRALKLLQKYLAILKEFDSEQYNLYDLELLRCQFFLAIDTLTPKKQKWGFDRFRRTKSESGVTYRQNASVDPELDQAKTFKNPYRSYISCLEQRNTILGNRLLNLKLNEPGEFINMILWTLSNSLQESTPLFLSSHEIWMPLLEILIDLFSCRQDYFIQHEVAQNVSKSLFVQRLSESPLAVFFESLNTRNFANRFSEYVFLNCDYKLPSDNYATPVHPVYNGENTIVDTYIPTIKCSPLYKSQKSLALRRKLIGSCFKLLLRVPDGHRLITPRIVADDVIQGISRTLASFNDILQFKKFFMTENLSQESYFIPLLAEGTLSEILKDTQECVVILTLVENLSDGVSFCNEVIGLVKSKCFAFTEQCSQASYEEAVLNIEKCDVCLLVLLRYLLHLIGTEAILDAKEQLEMLHAIEKNDSGRRQWAKALNLGNDPPLLYPIVSQMFGVHDKSVIIE
chain 2: MGSVNSSPNEEFETVPDSQISGFDSPLIPTSVGSYFRDDDDDEKVHPNFISDPENDSLNSDEEFSSLENSDLNLSGAKAESGDDFDPILKRTIISKRKAPSNNEDEEIVKTPRKLVNYVPLKIFNLGDSFDDTITTTVAKLQDLKKEILDSPRSNKSIVITSNTVAKSELQKSIKFSGSIPEIYLDVVTKETISDKYKDWHFISKNCHYEQLMDLEMKDTAYSFLFGSSRSQGKVPEFVHLKCPSITNLLVLFGVNQEKCNSLKINYEKKENSRYDNLCTIFPVNKMLKFLMYFYSDDDNDDVREFFLKAFICLILDRKVFNAMESDHRLCFKVLELFNEAHFINSYFEIVDKNDFFLHYRLLQIFPHLQSALLRRRFSEKQGRTETIQQNIIKEFNEFFDCKNYKNLLYFILTMYGSKFIPFGPKCQVTEYFKDCILDISNETTNDVEISILKGILNLFSKIR
notes: Nse5, S. cerevisiae; a native cysteine of it cross-links off-target to Smc5(G1054C); Nse6, S. cerevisiae; also called Nse5/6 subcomplex; Nse5/6 complex
binding result: binds

Source: article PMC10191858, “DNA segment capture by Smc5/6 holocomplexes” (Nature Structural & Molecular Biology, 2023)
